Data taken from patent publication US10465005B2, “JAML specific binding agents, antibodies, and uses related thereto” (Emory University, priority 2011, dated 2019).
“Also recorded” adds a separate entry of the source.

T1: JAML binding with CAR (Homo sapiens, UniProt Q86YT9)
T1 construct: soluble JAMLD1D2 was truncated and tagged after residue Leucine259; made in house; host or cells: HEK293T (sJAML-His)
T1 sequence (Q86YT9 20-259): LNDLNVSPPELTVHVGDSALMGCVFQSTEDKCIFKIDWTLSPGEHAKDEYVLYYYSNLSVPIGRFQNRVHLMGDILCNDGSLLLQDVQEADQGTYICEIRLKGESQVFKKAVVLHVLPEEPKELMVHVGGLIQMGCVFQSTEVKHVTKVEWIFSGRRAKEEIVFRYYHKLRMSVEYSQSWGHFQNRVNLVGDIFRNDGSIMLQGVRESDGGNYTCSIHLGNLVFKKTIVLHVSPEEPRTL

B1: DW100: monoclonal anti-human JAML antibody (IgG1,κ), hybridoma ATCC PTA-13051; VH SEQ ID NO:19, VL SEQ ID NO:22 (antibody, V domains shown)
VH: DVQLVESGAELVRPGASKLSCKALAYTFTDYEMHWVKQTPVHGLEWIGIIHPGSGGTVYNQKFKGKATLTADKSSSTAYMELSSLTSEDSTVYYCTRRRYYGSSYNWYFDVWGAGN
VL: VLTQSPASLAASVGETVTITCRASENIYYSLAWYQQKQGKSPQLLIYNANSLEDGVPSRFSGSGSGTQYSLKINSMQPEDTATYFCEQTYDVPLTFGAGTKLEL
B2: sJAML: recombinant soluble fragment of JAML.D1D2 tagged with 10 His residues at the C-terminus (protein)
chain: LNDLNVSPPELTVHVGDSALMGCVFQSTEDKCIFKIDWTLSPGEHAKDEYVLYYYSNLSVPIGRFQNRVHLMGDILCNDGSLLLQDVQEADQGTYICEIRLKGESQVFKKAVVLHVLPEEPKELMVHVGGLIQMGCVFQSTEVKHVTKVEWIFSGRRAKEEIVFRYYHKLRMSVEYSQSWGHFQNRVNLVGDIFRNDGSIMLQGVRESDGGNYTCSIHLGNLVFKKTIVLHVSPEEPRTL

What was measured:
[1] = test system: CHO-JAML and CHO-CAR cells; assay: CHO-JAML / CHO-CAR cell aggregation assay; format: cell-based; conditions: for aggregation of mixed CHO-CAR and CHO-JAML cultures (number and size of clusters): antibodies 30 μg/ml, 1 hour at 37° C., FIG. 1D
Protocol: FIG. 1D. CHO-K1 cells stably transfected with either JAML (CHO-JAML) or CAR (CHO-CAR) proteins were allowed to aggregate (1 hour at 37° C. on a shaker at 50 RPM) separately (1×10^6 cells/BSA coated 3 ml Petri dish), or as a mix (5×10^5 each cell type/dish), in the absence or presence of anti-JAML monoclonal antibodies DW100, DW55 and DW216 (30 μg/ml). The number of clusters (left) and the area of the clusters (right) were quantified in 7 randomly chosen fields using light microscopy. The results are representative of four independent experiments. CHO-CAR and CHO-JAML in mixed cultures formed large aggregates.
(§1) Because certain antibodies recognize the membrane distal domain of JAML, their ability to inhibit binding to CAR was tested. By ELISA, the levels of soluble CAR-GST bound to immobilized sJAML-His preincubated with anti JAML antibodies was measured. […] Thus, these antibodies recognize three different epitopes on JAML and that both DW100 and DW55 bind epitopes close to the JAML binding site. Using a cell aggregation assay, the possibility that DW100 could inhibit the binding of JAML to CAR expressed on the surface of cells was examined. […] This again confirms previously described JAML binding to CAR, as well as the specificity of DW100 (blocking) and DW216 (non-blocking) Abs to JAML.

JAML binding with CAR = biological target: T1, JAML binding with CAR; assay: CAR binding assay (ELISA, CAR-GST on immobilized sJAML-His); conditions: CAR-GST 10 μg/ml on immobilized sJAML-His preincubated with antibody; FIG. 1C
Protocol: FIG. 1C. CAR binding assay: sJAML-His was coated in Immulon II microtiter microtiter wells overnight, at 4° C. Microtiter wells were washed and blocked and 100 μl antibody solutions were added to wells for 1 hour RT. After washing, CAR-GST was added at 10 μg/ml for 1 hour RT, washed and the assay was developed with HRP conjugated goat anti GST followed by ABTS and OD measurement at 405 nm.
as §1

[2] = test system: T84 epithelial monolayers; assay: Scratch wound closure of epithelial monolayers; format: cell-based, human; conditions: for epithelial wound closure: T84 scratch wound, monitored over 72 h, FIG. 10
Protocol: T84 epithelial monolayers grown to confluence were wounded by introduction of a single linear scratch wound using a 20-μl plastic pipette tip. Wound closure was monitored over 72 h in the absence or presence of PMN or sJAML. The scale bar is 10 μm.
Whether JAML binding to CAR would affect epithelial wound restitution was investigated. […] If soluble JAML interactions with CAR play a role, the effect could be reversed with the addition of blocking DW100 mAb.
Cell grown in 24-well tissue culture plates received one linear wound using a 20-μl plastic pipette tip attached to low suction. Wounded monolayers were washed once with PBS to remove detached cells and debris, and incubated with the appropriate stimulus added to the medium. The rate of migration was measured by determining the wound area immediately after wounding (t=0) and at the indicated time points. The data are presented as the area of the wound at each time point normalized to t=0. The experiments were carried out in triplicates per condition, and the data shown are representative of 4 independent experiments.

T84 and CACO-2 cells = assay: Cell adhesion assay, PMN and HL60 to epithelial monolayers; format: cell-based, human; conditions: sJAML-His and mAbs 30 μg/ml, 1 hour
Protocol: PMN cells were pre-labeled with CellTracker™ Green (CMFDA). Labeled cells (2.5×10^5/well) were allowed to adhere for 1 hour to T84 (white bars) and CACO-2 (black bars) cells grown to confluency in 24 well tissue culture microtiter wells, in the absence (NoTx) or presence of soluble JAML (sJAML-His), 30 μg/ml), anti-JAML monoclonal antibodies DW100 and DW216 (30 μg/ml), or alternatively to stable CACO-2 cells lacking CAR. Non-adherent HL60 cells and PMN were removed by 3 washes with HBSS. Adherent cells were harvested by treating the monolayers with trypsin, followed by lysis with 0.1% Triton 100×. Fluorescence intensity was measured using FluoStar Galaxy plate reader at excitation/emission wavelengths of 485/535 nm.
JAML-CAR interactions are involved in PMN adhesion to epithelium. […] Indeed adhesion of both HL-60 cells and PMNs to epithelium is partly dependent upon JAML-CAR binding. […] HL-60 cells and PMNs also adhered to a lesser degree to Caco2 cells where the expression of CAR was stably knocked down, confirming the specificity of the adhesion events to JAML-CAR interactions.
Epithelial cells (T84/Caco-2) were seeded on 24-well plates (10^6 cells/well) and cultured until they reached confluence. […] Fluorescence intensity was measured using FluoStar Galaxy plate reader at excitation/emission wavelengths of 485/535 nm. […]

[3] = test system: T84 intestinal epithelial cells; assay: EdU incorporation cell proliferation at wound edge; format: cell-based, human; conditions: FIG. 10C,D
Protocol: FIG. 10C. Epithelial monolayers were wounded as described above and cell proliferation at the wound edge after 24 hours incubation with either sJAML or sSIRPa (30 μg/ml), with or without the addition of DW100 mAb was assessed by EdU incorporation assay. Data presented as proliferating cells (positively stained with EdU) out of all cells in the field multiplied by 100. Cells were counted in 7 randomly selected fields in 4 independent experiments.
JAML binding CAR to inhibit epithelial cell proliferation was investigated as a possible mechanism for impeding wound healing.
Cell proliferation was assessed in […] (EdU) incorporation assay, by using a Click-iT EdU Alexa 488 cell proliferation kit (Invitrogen). Cell apoptosis was assessed by staining with sulforhodamine labeled caspase inhibitor SR-VAD-FMK from APO LOGIX
Sulforhodamine Caspase Detection kit (Cell Technology). Scratch wounded or confluent cells were subjected to treatment as indicated in the figure were incubated for 24 hrs at 370 C before addition of EdU or APO LOGIX Sulforhodamine Caspase Detection kits. At least 5 random fields per each condition were analyzed, the data are presented as % proliferating/apoptotic cells out of total cells in the field.

| Molecule | aggregation of CHO-JAML cells alone (JAML-JAML) ([1]; FIG. 1) | aggregation of mixed CHO-CAR and CHO-JAML cultures (number and size of clusters) [1] | inhibition of CAR binding to JAML (JAML binding with CAR) | reversal of PMN or sJAML inhibition of wound closure ([2]; T84, mAb 30 μg/ml, FIG. 10A,B) | adhesion of HL60 cells and PMN to epithelial monolayer (T84 and CACO-2 cells; FIG. 8) | block of soluble JAML inhibition of proliferation ([3]; EdU) | epithelial wound closure [2] | epithelial wound closure ([2]; listed as Soluble JAML) | adhesion of HL60 cells and PMN to epithelial monolayer (T84 and CACO-2 cells; FIG. 8, listed as soluble JAML) | proliferation of epithelial cells at wound edge (EdU) ([3]; 30 μg/ml, 24 hours) |
| --- | --- | --- | --- | --- | --- | --- | --- | --- | --- | --- |
| B1 | could not be blocked with DW100 mAb | could be blocked with DW100; also recorded: significantly inhibited aggregation of mixed cultures of CHO transfectants; also recorded: significantly decreased both the size and the number of formed clusters | inhibit human JAML binding with CAR; also recorded: completely inhibited JAML/CAR interactions; also recorded: completely inhibited binding of JAML to CAR | reversed this inhibition; also recorded: significantly improved wound restitution | decreased adhesion of HL60 cells and PMN to epithelial monolayer; also recorded: significantly decreased | blocked by addition of DW100 |  |  |  |  |
| B2 |  | blocked |  |  |  |  | inhibited wound closure | delayed both epithelial barrier recovery and wound restitution | decreased adhesion of HL60 cells and PMN to epithelial monolayer; also recorded: significantly decreased | significantly inhibits proliferation of T84 intestinal epithelial cells |
